The test has as its target hemocyanin from Macrobrachium acanthurus (Macrobrachium acanthurus). As to the kind of experiment: AUC; sedimentation velocity, HcMac at 100, 200 and 300 ug/mL, Tris-HCl 100 mmol/L with NaCl 50 mmol/L, pH 7.0, 20 °C, absorbance at 280 nm, SEDFIT c(S) and c(M); single 19S species of about 450 kDa; hexamer of monomeric subunits.

The term stoichiometry N denotes a count of units in the complex or per binding partner. Turning to “hemocyanin from Macrobrachium acanthurus (natural protein)”, the stoichiometry N came out at 6.
